# System: CN3 yeast strain host cells
# Assay: Detection of glycosylated cannabinoids and cannabinoid precursors in yeast cells expressing UDP-glycosyl transferase (HPLC-MS)
# Type: cell-based
# Conditions: pellet or supernatant of recombinant yeast host cells transformed with the UGT
# From the text: CN3 yeast strain host cells were transformed as described in Example 1 with one of the following heterologous UGT genes: (1) AtUGT73C6, (2) AtUGT73B4, (3) AtUGT71 D1, (4) AtUGT76E12, (5) AtUGT88A1, (6) HaUGT76G1-L, (7) At5g49690, (8) AtUGT76C4, (9) CsUGT73C6, (10) SrUGT76C1, (11) AtUGT85A3, (12) AtUGT73B1, (13) Atg65550, (14) AtUGT76B1, (15) ATUGT76B1, (16) CsUGT75B2, (17) CsUGT73B4, (18) CsUGT73B1, (19) CsUGT75D1-DN11028, and (20) CsUGT71D1-DN48028. The transformed host cells were pre-grown overnight in yeast extract peptone dextrose (YPD) growth medium and then back diluted into yeast extract peptone galactose (YPG) to OD600 = 0.2. […] Strains were incubated for 20 h at 28° C. rotating at 600 RPM in an EPOCH|2 microplate reader (BioTek). Subsequently, samples were treated with an extraction solvent (80 % Acetonitrile, 20 % Methanol) for 1 hour rotating at 100 RPM. After 20 minutes centrifugation at 12,000 RPM, the supernatant was filtered with a basix 13 mm syringe filter (0.22 µm pore size, Nylon membrane) and transferred to a new tube for further analysis.
# Glycosylated cannabinoid compounds and glycosylated cannabinoid precursor compounds were assayed in the supernatant and the cellular pellet employing HPLC and HPLC-MS analysis. HPLC and HPLC-MS analysis was carried out as described below to detect the following glycosylated cannabinoid and cannabinoid precursor compounds: CBGA monoglucoside, CBGA diglucoside, CBDA monoglucoside, CBDA diglucoside, CBGA glucuronic acid, CBD monoglucoside, CBD diglucoside, olivetolic acid monoglucoside (“OliAcid monoglucoside”), olivetolic acid diglucoside (“OliAcid diglucoside”).
# HPLC analysis was carried out on an Agilent Technologies 1290 Infinity system, consisting of a vacuum degasser, a binary pump, a thermostated autosampler, a thermostated column compartment and a diode array detector (DAD). A Zorbax Eclipse Plus EC-18 column (2.1 × 50 mm, 1.8 µm, Agilent, USA) was used with a mobile phase composed of 0.1% formic acid in both (A) water with 0.2 % Formic Acid and (B) Acetonitrile with 0.2 % Formic Acid. The chromatographic conditions were set as follows: 0.0-8.0 min linear gradient from 5 to 95% B; 8.1-9.09 min […], 9.10-11.0 min 5 to 95% A for equilibration of the column with the initial conditions. The flow rate was set at 0.4 ml/min. The column temperature was set at 40° C. The sample injection volume was 5 µL. The UV/DAD acquisitions were carried out in the range 190-400 nm and chromatograms were acquired at 265 and 350 nm.
# HPLC-MS analysis was carried out to confirm the identity of the HPLC peaks using an Agilent Technologies 6530 Accurate-Mass quadrupole time of flight (QToF) mass spectrometer operating in negative ionization (ESI -) mode. The mass spectrometer experimental parameters were set as follows: the capillary voltage was 3.5 kV, the nebulizer (N2) pressure was 35 psi, the drying gas temperature was 350° C., the drying gas flow was 11 L/min and the skimmer voltage was 65 V. Data were acquired by Agilent Mass Hunter software. The mass spectrometer was operated in full-scan mode in the m/z range 50-1100. Extracted ion chromatograms (EICs) were obtained with an accuracy of 10 ppm m/z from total ion chromatogram (TIC) employing the m/z corresponding to the molecular ions [M-H]^- 385.1504 for Olivetolic Acid Mono-Glucoside, 547.2032 for Olivetolic Acid di-Glucoside, 521.2756 for CBGA Mono-Glucoside, 683.3284 for CBGA Di-Glucoside, 535.2549 for CBGA Glucuronic Acid, 519.2600 for CBDA Mono-Glucoside, 475.2701 for CBD Mono-Glucoside, 637.3302 for CBD Di-Glucoside.
# The glycosylated cannabinoid compounds and glycosylated cannabinoid precursor compounds were detected in a relative and semi-quantitative fashion. […]
row,Molecule,production of glycosylated cannabinoids or cannabinoid precursor compounds
1,"AtUGT76B1: UDP-glycosyl transferase from Arabidopsis thaliana, amino acid sequence SEQ ID NO: 28 (protein, listed as Arabidopsis thaliana) METRETKPVIFLFPFPLQGHLNPMFQLANIFFNRGFSITVIHTEFNSPNSSNFPHFTFVSIPDSLSEPESYPDVIEILHDLNSKCVAPFGDCLKKLISEEPTAACVIVDALWYFTHDLTEKFNFPRIVLRTVNLSAFVAFSKFHVLREKGYLSLQETKADSPVPELPYLRMKDLPWFQTEDPRSGDKLQIGVMKSLKSSSGIIFNAIEDLETDQLDEARIEFPVPLFCIGPFHRYVSASSSSLLAHDMTCLSWLDKQATNSVIYASLGSIASIDESEFLEIAWGLRNSNQPFLWVVRPGLIHGKEWIEILPKGFIENLEGRGKIVKWAPQPEVLAHRATGGFLTHCGWNSTLEGICEAIPMICRPSFGDQRVNARYINDVWKIGLHLENKVERLVIENAVRTLMTSSEGEEIRKRIMPMKETVEQCLKLGGSSFRNLENLIAYILSF",No production
2,"CsUGT71 D1-DN48028: UDP-glycosyl transferase from Cannabis sativa, amino acid sequence SEQ ID NO: 40 (protein, listed as Cannabis sativa) MARVELVFIPAPAIGHLVSTLEFAKRLIHYDHRLFITVLCEFSLKSHLDAYIDSLVASLSLAHRIKLVHLPLVDSPPVELLKSIENFIYQYMESLVPHVRKALTDIVSSNSNYSQGDVVLVLDFFCMPMMDVANELGLPSYMFMTSNLGLLSLMFYLATRHNQISSELEESDAPLRLQGFQNPVPSSVLPTAAFCKDGGYSAYVKLAQRFRETKGIIVNSFEELESYSFSSMNDGAETPPIYMVGPVLDLNGQPHPSMDQVQNDKILKWLDEQPHSSVVFLCFGSMGKFGASQLREIASGLQRSGHRFLWSVRVQQPTTIDEILPEGFLEQIGSKGMICNEWAPQVKILAHSAVGGFLSHCGWNSILESLWYGVPVATWPIYAEQQLNAFRMVREFGLAVDLRLDYKDRGDDHIVSAEEIETAVKHLMEGDKEVRKKVKEMSETARKSVEEGGSSFTAIGKLINSIIGSNYY",No production
3,"At5g65550: UDP-glycosyl transferase from Arabidopsis thaliana, amino acid sequence SEQ ID NO: 26 (protein, listed as Arabidopsis thaliana) MAEPKPKLHVAVFPWLALGHMIPYLQLSKLIARKGHTVSFISTARNISRLPNISSDLSVNFVSLPLSQTVDHLPENAEATTDVPETHIAYLKKAFDGLSEAFTEFLEASKPNWIVYDILHHWVPPIAEKLGVRRAIFCTFNAASIIIIGGPASVMIQGHDPRKTAEDLIVPPPWVPFETNIVYRLFEAKRIMEYPTAGVTGVELNDNCRLGLAYVGSEVIVIRSCMELEPEWIQLLSKLQGKPVIPIGLLPATPMDDADDEGTWLDIREWLDRHQAKSVVYVALGTEVTISNEEIQGLAHGLELCRLPFFWTLRKRTRASMLLPDGFKERVKERGVIWTEWVPQTKILSHGSVGGFVTHCGWGSAVEGLSFGVPLIMFPCNLDQPLVARLLSGMNIGLEIPRNERDGLFTSASVAETIRHVVVEEEGKIYRNNAASQQKKIFGNKRLQDQYADGFIEFLENPIAGV",No production
4,"AtUGT85A3: UDP-glycosyl transferase from Arabidopsis thaliana, amino acid sequence SEQ ID NO: 22 (protein, listed as Arabidopsis thaliana) MGSRFVSNEQKPHVVCVPYPAQGHINPMMKVAKLLHVKGFHVTFVNTVYNHNRLLRSRGANALDGLPSFQFESIPDGLPETGVDATQDIPALSESTTKNCLVPFKKLLQRIVTREDVPPVSCIVSDGSMSFTLDVAEELGVPEIHFWTTSACGFMAYLHFYLFIEKGLCPVKDASCLTKEYLDTVIDWIPSMNNVKLKDIPSFIRTTNPNDIMLNFVVREACRTKRASAIILNTFDDLEHDIIQSMQSILPPVYPIGPLHLLVNREIEEDSEIGRMGSNLWKEETECLGWLNTKSRNSVVYVNFGSITIMTTAQLLEFAWGLAATGKEFLWVMRPDSVAGEEAVIPKEFLAETADRRMLTSWCPQEKVLSHPAVGGFLTHCGWNSTLESLSCGVPMVCWPFFAEQQTNCKFSCDEWEVGIEIGGDVKRGEVEAVVRELMDGEKGKKMREKAVEWRRLAEKATKLPCGSSVINFETIVNKVLLGKIPNT",No production
5,"CsUGT75D1-DN11028: UDP-glycosyl transferase from Cannabis sativa, amino acid sequence SEQ ID NO: 38 (protein, listed as Cannabis sativa) MKRTLLFIPSPGIGHLVSMLEFAKRLIQYDDRLFITILSMKFPNHDAYINSLVPSLSQSRVKLAHLPQVDPPPPKLLNSPESYIYVYVESLVPHVRDALKHIVPSHSNSETTHSQGCFVMVLDFFCMPMMDVANELGLPSYMFMPSNIGFLSSMLYLATRHDQISSELKESNPDEYSLKSFHNPVPWSALPQAYFCKDGGYSACVKMAQRFRETKGIIVNSFEGLEAHGATSFNDGETPPIYMVGPVVNFKGQPHSSTDHVQNNRIFKWLDEQPQSSVVFLCFASLGTFDASQLREIASGLECSGHRFLWCIRVQQPTIIDEILPEGFLERIGSKGMICNEWTPQVEVLAHNAVGGFVSHCGWNSILESLWYGVPIVTWPVYAEQQLNAFQMVREFDLAIELRLDYRNRGHNQLVTAEEIGNAIKKLMEGDHNVVMRKKGASGISSMVLSRFYTCKENVVLRQDPRWFAIKAGGEEK",No production
6,"AtUGT73B1: UDP-glycosyl transferase from Arabidopsis thaliana, amino acid sequence SEQ ID NO: 24 (protein, listed as Arabidopsis thaliana) MGVFGSNESSSMSIVMYPWLAFGHMTPFLHLSNKLAEKGHKIVFLLPKKALNQLEPLNLYPNLITFHTISIPQVKGLPPGAETNSDVPFFLTHLLAVAMDQTRPEVETIFRTIKPDLVFYDSAHWIPEIAKPIGAKTVCFNIVSAASIALSLVPSAEREVIDGKEMSGEELAKTPLGYPSSKVVLRPHEAKSLSFVWRKHEAIGSFFDGKVTAMRNCDAIAIRTCRETEGKFCDYISRQYSKPVYLTGPVLPGSQPNQPSLDPQWAEWLAKFNHGSVVFCAFGSQPVVNKIDQFQELCLGLESTGFPFLVAIKPPSGVSTVEEALPEGFKERVQGRGVVFGGWIQQPLVLNHPSVGCFVSHCGFGSMWESLMSDCQIVLVPQHGEQILNARLMTEEMEVAVEVEREKKGWFSRQSLENAVKSVMEEGSEIGEKVRKNHDKWRCVLTDSGFSDGYIDKFEQNLIELVKS",No production
7,"AtUGT76D1: UDP-glycosyl transferase from Arabidopsis thaliana, amino acid sequence SEQ ID NO: 30 (protein, listed as Arabidopsis thaliana) MAEIRQRRVLMVPAPFQGHLPSMMNLASYLSSQGFSITIVRNEFNFKDISHNFPGIKFFTIKDGLSESDVKSLGLLEFVLELNSVCEPLLKEFLTNHDDVVDFIIYDEFVYFPRRVAEDMNLPKMVFSPSSAATSISRCVLMENQSNGLLPPQDARSQLEETVPEFHPFRFKDLPFTAYGSMERLMILYENVSNRASSSGIIHNSSDCLENSFITTAQEKWGVPVYPVGPLHMTNSAMSCPSLFEEERNCLEWLEKQETSSVIYISMGSLAMTQDIEAVEMAMGFVQSNQPFLWVIRPGSINGQESLDFLPEQFNQTVTDGRGFVVKWAPQKEVLRHRAVGGFWNHGGWNSCLESISSGVPMICRPYSGDQRVNTRLMSHVWQTAYEIEGELERGAVEMAVRRLIVDQEGQEMRMRATILKEEVEASVTTEGSSHNSLNNLVHAIMMQIDEQ",No production

# Source: patent US20230340555A1, “PRODUCTION OF GLYCOSYLATED CANNABINOIDS” (WILLOW BIOSCIENCES, INC., priority 2020, published 2023)
